Binding signal (% of WT binding) data for 1 substance are collected here from paper PMC3706390.

Some targets named below: L30 L35A L35A (rat) (UniProt P62890); L30 Y89A Y89A (rat) (UniProt P62890); L30 K87A K87A (rat) (UniProt P62890); L30 K36A K36A (rat) (UniProt P62890).
Holding throughout (assay): EMSA
What all share (details): 30 mM Tris-HCl pH 8.0, 75 mM KCl, 5 mM MgCl2, 1 mM DTT, 0.04 ug/uL BSA, 10% glycerol, 50 ng/uL yeast tRNA, 30 C 15 min; EMSA gels 0.5X TBE at 4 C; RNase …

With PHGPx SECIS 102 nt (REMSA), the binding signal (% of WT binding) was 86 with L30 L35A L35A (rat), 32 with L30 Y89A Y89A (rat), 60 with L30 K87A K87A (rat) and 78 in the data set with L30 K36A K36A (rat).
